Data from US7790697B2, “Compositions and methods for inhibiting the synthesis or expression of MMP-1” (Trustees of Dartmouth College, priority 2004, dated 2010).

What was measured:
Format in all cases: cell-based, human
MT1-MMP (MMP-14) mRNA = assay: Specificity qRT-PCR, MT1-MMP (MMP-14) mRNA in stable MDA-231 cells; settings: stable MDA-231 cell lines, 24 hour serum-free; group average ± S.D.; P=0.4 vs empty vector
Excerpt: RNA Isolation and Real-Time RT-PCR. […] Real-Time PCR Primer Sequences. […] ID NO:7; MMP-1 reverse [NT] ID NO:8; MMP-2 forward [NT] ID NO:9; MMP-2 reverse [NT] ID NO:10; MMP-9 forward [NT] ID NO:11; MMP-9 reverse [NT] ID NO:12; MMP-13 forward [NT], SEQ ID NO:13; MMP-13 reverse [NT] ID NO:14; MMP-14 forward [NT] ID NO:15; MMP-14 reverse [NT] ID NO:16; GAPDH forward [NT] ID NO:17; GAPDH reverse [NT] ID NO:18; eGFP forward [NT] ID NO:19; eGFP reverse [NT] ID NO:20. Real-Time PCR Standards.

MMP-1 mRNA = MMP-1 mRNA by qRT-PCR in stably transfected MDA-231 cell lines; settings: for Copies of MMP-1 mRNA per pg GAPDH mRNA: average ± S.D.
Method: Transfection of NIH/3T3 and MDA-231 Cells. NIH/3T3 cells were transiently transfected with LIPOFECTAMINE™ 2000 (INVITROGEN™, Carlsbad, Calif.) along with 0.5 μg peGFP, 0.5 μg pCMV-MMP-1, and 2 μg PSUPER™-MMP-1 shRNA or PSUPER™ with no insert. Transfection efficiency was monitored using eGFP signal. Total cellular RNA was harvested 48 hours after transfection and analyzed for MMP-1 mRNA by real-time RT-PCR. MDA-231 cells were stably transfected in triplicate with LIPOFECTAMINE™ 2000 (INVITROGEN™, Carlsbad, Calif.) and 2 μg of the PSUPER™.Retro.Neo.GFP plasmid containing the MMP-1 shRNA, the scrambled sequence or just the empty vector. Stable cell lines were selected by growth in the presence of 1 mg/mL G418 (STRATAGENE®, La Jolla, Calif.). Individual, stable cell lines were isolated with cloning disks according to the manufacturer's instructions (PGC Scientifics, Frederick, Md.).
RNA Isolation and Real-Time RT-PCR.
After initial neomycin selection and isolation of individual stable cell lines, MMP-1 mRNA and protein levels were determined using quantitative RT-PCR (qRT-PCR) and ELISA. MMP-1 mRNA levels were measured in RNA harvested from stably transfected cell lines after a 24 hour incubation in serum-free medium and were normalized to GAPDH mRNA levels. MMP-1 protein levels were measured in the serum-free media of the cell lines after 24 hours of incubation and were normalized to total protein content of the cells. The ELISA measured total (active and zymogen) forms of MMP-1 protein. […] To control for differences introduced into the cell lines during selection, these three individual cell lines for each group were pooled, and all subsequent experiments were performed on pooled cells.

MMP-1 protein = assay: Western blot of MMP-1 protein in culture medium; settings: MDA-231 cells producing the shRNA; 24 hours
Method: Western Blot Analysis. MDA-231 cells were cultured in 1 mL serum-free DMEM/F12 medium in six-well plates in the presence or absence of a collagen gel, with or without aprotinin (50 U/mL; Sigma, St. Louis, Mo.). After 24 hours, medium was harvested, proteins precipitated with cold 10% trichloroacetic acid, and resuspended in 50 μL SDS loading buffer (PROMEGA®, Madison, Wis.). Following SDS-PAGE and transfer to a PVDF membrane (IMMOBILON™-P; MILLIPORE™, Bedford, Mass.), the membrane was incubated in a 5% milk, Tris-buffered saline solution with 0.1% TWEEN™ (milk TBST) for 1 hour. The membrane was probed with a MMP-1 polyclonal antibody (CHEMICON®, Temecula, Calif.) diluted 1:5000 in milk TBST overnight at 4° C. The membrane was washed three times with TBST, and a 1:2000 dilution of goat anti-rabbit horseradish peroxidase (HRP) conjugated antibody (CELL SIGNALING TECHNOLOGY®, Beverly, Mass.) in milk TBST was added for 60 minutes. The blot was washed three times with TBST, and HRP activity was detected with the WESTERN LIGHTNING® chemiluminescence reagent according to the manufacturer's instructions (PERKINELMER®, Boston, Mass.).
The three MMPs primarily responsible for degrading type 1 collagen are MMP-1, MMP-13, and the membrane bound MT1-MMP (Stamenkovic (2003) J. Pathol. 200:448-64). […]

B1: MMP-1 shRNA: Vector-expressed small hairpin RNA, SEQ ID NO:1 (sense) and SEQ ID NO:2 (antisense), specific to bases 234-252 of MMP-1 mRNA (nucleic acid)
sense: GATCCCCACCAGATGCTGAAACCCTGTTCAAGAGACAGGGTTTCAGCATCTGGTTTTTTGGAAA
antisense: AGCTTTTCCAAAAAACCAGATGCTGAAACCCTGTCTCTTGAACAGGGTTTCAGCATCTGGTGGG
modifications: the letters are possibly those of the target site
- MT1-MMP mRNA level (MT1-MMP (MMP-14) mRNA): 107000 ± 46000 copies of the target gene/pg GAPDH
- Copies of MMP-1 mRNA per pg GAPDH mRNA (MMP-1 mRNA; Group of cell lines D1, Y2, Y7, P=0.004 vs empty vector): 6200 ± 3200 copies per pg GAPDH mRNA
- Copies of MMP-1 mRNA per pg GAPDH mRNA (MMP-1 mRNA; MDA-231 cell line D1): 8900 ± 3600 copies per pg GAPDH mRNA
- Copies of MMP-1 mRNA per pg GAPDH mRNA (MMP-1 mRNA; MDA-231 cell line Y2): 4600 ± 2500 copies per pg GAPDH mRNA
- Copies of MMP-1 mRNA per pg GAPDH mRNA (MMP-1 mRNA; MDA-231 cell line Y7): 5000 ± 2400 copies per pg GAPDH mRNA
- reduction in MMP-1 mRNA levels compared to empty vector cell lines (MMP-1 mRNA; three stable MDA-231 cell lines, 24 hour serum-free): greater than 90%
- MMP-1 protein in medium (western blot) (MMP-1 protein): No detectable MMP-1 protein
